Target: T1, bovine serum albumin (BSA) (bovine, UniProt P02769 25-607)
T1 construct: Control protein for non-specific adsorption to the ASF-SPR chip
Assay: SPR, ASF-immobilised chip, BSA in solution
Procedure: The ASF-SPR chip was prepared starting with a 50 nm gold-coated SF10 glass substrate. The first SAM layer was self-assembled using a mixed ethanolic solution of 5×10⁻⁵ M cysteamine (NH₂ terminated thiol) (Sigma-Aldrich, Sydney, Australia) and 4.5×10⁻⁴ M mercaptoethanol (OH terminated thiol, as spacers) (Sigma-Aldrich, Sydney, Australia) for 15 h at room temperature. The second layer of biotin was introduced by coupling biotin-hexanoic acid (Sigma-Aldrich, Sydney, Australia) with cysteamine by activating 1 mg/ml biotin-hexanoic acid in PBS (prepared from a 6 mg/mL stock in dimethylformamide (DMF, Sigma-Aldrich, Sydney, Australia) with 4 mg/mL of 1-(3-dimethylaminopropy)-3-ethylcarbodiimide hydrochloride (EDC, Sigma-Aldrich, Sydney, Australia) and 0.7 mg/mL of N-hydroxysuccinimide (NHS, Sigma-Aldrich, Sydney, Australia). The third layer (of SA) was constructed by loading 45 μg/mL of SA (Invitrogen, Mount Waverley, Australia) into the flow cell, which specifically binds to biotin. This step took about 10 min to reach equilibrium. The SA layer was then activated by 4 mg/mL EDC and 0.7 mg/mL NHS for 5 min, enabling its carboxylic acid residue to react with the primary amino group of ASF (Sigma-Aldrich, Sydney, Australia). 1.0 mg/mL ASF was used in this step to prepare the fourth layer. […]

T1 sequence (P02769 25-607 limits assumed): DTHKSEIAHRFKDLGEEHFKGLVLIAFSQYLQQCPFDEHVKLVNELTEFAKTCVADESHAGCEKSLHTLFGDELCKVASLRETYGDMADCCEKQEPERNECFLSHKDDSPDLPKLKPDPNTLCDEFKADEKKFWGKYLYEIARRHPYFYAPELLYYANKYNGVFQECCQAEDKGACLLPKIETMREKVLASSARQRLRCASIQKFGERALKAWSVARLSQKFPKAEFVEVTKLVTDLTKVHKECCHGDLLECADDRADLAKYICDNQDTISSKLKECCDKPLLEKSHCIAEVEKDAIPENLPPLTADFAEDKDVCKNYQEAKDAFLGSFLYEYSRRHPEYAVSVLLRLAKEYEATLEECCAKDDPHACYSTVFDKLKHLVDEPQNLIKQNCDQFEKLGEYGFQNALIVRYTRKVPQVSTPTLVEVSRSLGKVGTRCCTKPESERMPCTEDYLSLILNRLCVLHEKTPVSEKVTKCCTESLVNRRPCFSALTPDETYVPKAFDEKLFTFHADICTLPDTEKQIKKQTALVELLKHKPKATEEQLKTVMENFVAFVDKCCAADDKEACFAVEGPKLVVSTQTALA

binding result: no binding (tested: 4.4 mg/mL)
B1: asialofetuin (ASF) (other, UniProt P12763 19-359, looked up)
chain: IPLDPVAGYKEPACDDPDTEQAALAAVDYINKHLPRGYKHTLNQIDSVKVWPRRPTGEVYDIEIDTLETTCHVLDPTPLANCSVRQQTQHAVEGDCDIHVLKQDGQFSVLFTKCDSSPDSAEDVRKLCPDCPLLAPLNDSRVVHAVEVALATFNAESNGSYLQLVEISRAQFVPLPVSVSVEFAVAATDCIAKEVVDPTKCNLLAEKQYGFCKGSVIQKALGGEDVRVTCTLFQTQPVIPQPQPDGAEAEAPSAVPDAAGPTPSAAGPPVASVVVGPSVVAVPLPLHRAHYDLRHTFSGVASVESSSGEAFHVGKTPIVGQPSIPGGPVRLCPGRIRYFKI
modifications: three triantennary N-link oligosaccharide chains with terminal N-acetyllactosamine (LacNAC) residues and three O-linked disaccharide chains (desialylated)
notes: Immobilised on a home-made SPR chip (thiol-SAM/biotin/streptavidin/ASF) by EDC/NHS coupling to streptavidin; also called asiolofetuin

— patent publication US20110129485A1 (UNIVERSITY OF QUEENSLAND, published 2011)
